The numbers were not newly measured in publication PMC5116031, which cites them from elsewhere.

What is called Kd is a measure of binding affinity in units of concentration.

The series addresses BECN1 CCD (Rattus norvegicus) (UniProt Q91XJ1).

Sequence of BECN1 CCD (Q91XJ1 174-266): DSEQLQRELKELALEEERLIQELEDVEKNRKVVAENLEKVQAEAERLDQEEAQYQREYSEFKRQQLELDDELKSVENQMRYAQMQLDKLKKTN

For the substance BECN1 CCD (from UniProt Q91XJ1), the Kd is 89 µM.
